Data as given in patent US20240309050A1.

Tests used:
[1] = target: gHgL-I53-50 NP self-assembled nanoparticle (EB virus (M81 strain) for the gH and gL parts); assay: BLI (Octet), AMMO1 on protein A sensor, antigen (row label gHgL-I53-50 NP) in solution 3.125-200 nM, 1:1 fit
[2] = target: gHgL-I53-50A1 subunit (EB virus (M81 strain) for the gH and gL parts); assay: BLI (Octet), AMMO1 on protein A sensor, antigen (row label gHgL-I53-50A1) in solution 3.125-200 nM, 1:1 fit
[3] = target: gHgL antigen protein of EB virus (EB virus (M81 strain)); assay: BLI (Octet), AMMO1 on protein A sensor, antigen (row label gHgL) in solution 3.125-200 nM, 1:1 fit

Substance: neutralizing antibody AMMO1
- Kd [1]: 0.0339 nM
- Kd [2]: 0.242 nM
- Kd [3]: 0.432 nM
